Test results as given in the supplement of paper PMC9732359.
± gives the uncertainty stated by the source.

Test: protein stability index of a GFP-peptide fusion (yeast GPS) (PSI 1-4); higher = more stable; sorted into four equal gates, so the index is relative within each strain
Settings: doa10∆
Procedure, shortened: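 Mid-log yeast cultures in leucine-free medium, carrying a pooled plasmid library, were sorted into four equal gates by their GFP/Cherry fluorescence ratio. Each plasmid expressed Cherry along with GFP fused upstream of a tiled 17-residue yeast protein peptide. Plasmids recovered from each gate were PCR-amplified and Illumina-sequenced, with reads assigned to strains by barcodes. The protein stability index was obtained by summing each gate's read frequency weighted by its gate number.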

Sequence	protein stability index
VYREVCAACHSLDRVAW [CYT1]	3.36 ± 0.26
VYSKQATFLLTDIKDTL [MCD1]	2.27 ± 0.062

Same assay, conditions: pdr5∆

Sequence	protein stability index
VKIGKFIPHGLKRRQVI [SRB8]	2.23 ± 0.075
VKIRATGGTRTKTPGPG [RPS14A]	3.08 ± 0.16
VKKILPLYARYINVNPQ [ECM29]	2.15 ± 0.051
VKKPQKSKTSTGKERSK [SNM1]	3.39 ± 0.085
VKKTGENEISSLLAMHK [CDC53]	2.54 ± 0.12
VKKVQLGKKGVPYVVTH [RPS4A]	2.07 ± 0.13
VKKVVKEQTEAAKKSEK [RPL34A]	3.4 ± 0.1
VKLIVMLCTLTGYQNND [YJL039C/NUP192]	1.25 ± 0.078
VKVARLAGKYIPNLTAK [FAS1]	2.58 ± 0.22
VKWYHFDHNDKKLSINS [PRE7]	2.38 ± 0.063
VKYASPNLNMKYRKRQL [FAS2]	3.19 ± 0.09
VKYMPEQKITEIEDGQD [RPO21]	3.12 ± 0.099
VLCTRLRLSNFFTIDHF [SIR2]	1.5 ± 0.057
VLDSMTKEELESDGRMF [SRP54]	3.2 ± 0.089
VLIDLLNWFRTTNMNVN [RGR1]	1.66 ± 0.068
VLILLHAERDLALAETL [SRP68]	3.04 ± 0.089
VLKFAAHTGATPIAGRF [RPS0A]	2.85 ± 0.11
VLKFTFTGEKPIITGST [MED8]	2.18 ± 0.074
VLKSSVYEYVIASTLGP [RPC82]	1.53 ± 0.07
VLKTLIEKFEQVPDSLD [RPN6]	3.21 ± 0.081
VLMERKDERGEGEAKQK [ITC1]	3.35 ± 0.24
VLNGQKIVVVRAEALNI [RPL16B]	3.15 ± 0.14
VLPAATKKKSKFMTNST [ARP9]	2.78 ± 0.046
VLRTALVHDGLARGLRE [RPS12]	2.79 ± 0.16
VLSDDAKKLSSFDFGNE [ARP9]	3.06 ± 0.09

Sequence	protein stability index
VLTHESLHRQQQQQQQQ [DLS1]	2.9 ± 0.079
VLVASAKGLQTVVVEED [RPL31A]	2.49 ± 0.11
VMDTIQEQITLYDHWDK [SSN8]	2.96 ± 0.09
VMLKGIVTALLESDVNI [SRP54]	1.22 ± 0.067
VMTVPGIDPTRIYTNSF [RPO21]	2.11 ± 0.067
VMYGTAYKFEEVSKDLI [RPB8]	3.18 ± 0.061
VMYNGHTGKKLMAQIFF [RPB2]	2.31 ± 0.16
VNDEEEHKQLVAEIVQN [RPC82]	2.54 ± 0.19
VNDNPDIEAGDDDDNNE [DIS3]	3.47 ± 0.14
VNIEPFNIDDEIKHGVF [LIN1]	3 ± 0.21
VNNGNIPSQRGTSTTHG [SIR3]	2.85 ± 0.088
VNNTRRRVYNRVLETTL [BRN1]	2.98 ± 0.094
VNRLLSVIPLKGRYAPE [RRP4]	1.68 ± 0.087
VNRSVVVSAVGEARNDI [YAR002W/NUP60]	2.57 ± 0.051
VPCDRIEKSRLFSEKTI [SNF6]	2.78 ± 0.058
VPLIKVADAKQLGEWAG [RPS12]	3.49 ± 0.23
VPPIASPQQFLRAHTDD [PRE2]	2.72 ± 0.063
VPPTIAQFQYTLDRNTA [RPL8A]	2.06 ± 0.048
VPPVENFPVRQWSIEIV [TAF14]	2.55 ± 0.053
VPRKFKHFIQGGSFGNR [RPL7A]	2.85 ± 0.1
VPRTADRSASRAVFLFR [RPC82]	3.53 ± 0.2
VPYVVTHDGRTIRYPDP [RPS4A]	3.16 ± 0.17
VQCPTVIKLAKYPDYFP [ARP9]	1.81 ± 0.049
VQEQLSKNRIIVEADEK [RET1]	1.37 ± 0.052
VQGGNAAPSAADIKAVV [RPP2B]	3.34 ± 0.07

Sequence	protein stability index
VQHDQILVMETSEEQTK [SWP82]	2.91 ± 0.11
VQLKDANSQIQAYEEII [YIL149C/MLP2]	3.5 ± 0.17
VQVKVLGKYEFSKILPA [ESC2]	1.99 ± 0.14
VRKAITVLFFIGVRCYE [FAS1]	1.77 ± 0.075
VRKELRGRAVVLMGKNT [RPP0]	1.83 ± 0.094
VRLLCRSDGMGNVLLNA [YLR335W/NUP2]	2.41 ± 0.13
VRSEMGEPIHKIATRGV [FAS1]	3.14 ± 0.28
VRVQRQKKILSIRLKVP [RPL8A]	1.28 ± 0.032
VSADDFVEEQNVYVLPK [PRP8]	3.18 ± 0.11
VSALDKCIKYSEKLITK [ECM29]	2.15 ± 0.1
VSDSEIIDLNLHSFTKQ [POP6]	2.85 ± 0.062
VSEVAKIMQEATQSGGV [PRE8]	2.77 ± 0.17
VSGDLNPIHVSRHFASY [FAS1]	2.88 ± 0.068
VSISTSVKPHVVEPEHM [SIR4]	2.99 ± 0.089
VSITDAPKIHILDPSTE [YMR129W/POM152]	1.95 ± 0.056
VSITPGKIEKIAQSKKK [SRP21]	1.8 ± 0.086
VSKKVDVRRLKKNVWRS [BRN1]	1.33 ± 0.13
VSLTKRKQEREITSLRQ [YIL149C/MLP2]	2.32 ± 0.14
VSNRVAAPARAGAVAPE [RPP0]	2.54 ± 0.097
VSNSISRLGEENLPGLS [SNU114]	1.27 ± 0.15
VSPNDNNSANNNAHSSD [YMR153W/NUP53]	2.84 ± 0.06
VSPNISSASPSALTSPT [SIR3]	2.78 ± 0.074
VSQVRVVPNEKADDDSV [ASC1]	3.11 ± 0.15
VSSKPSKPESSVLQLIV [MED1]	3.28 ± 0.11
VTAKLLGFTPGELRSYL [FAS1]	2.97 ± 0.11

Sequence	protein stability index
VTDDPIWMRGHGTYFLD [RRP4]	3.17 ± 0.078
VTDLSGKETIARVTGGM [RPS14B]	3.09 ± 0.081
VTGASQFQRLAPSLTVP [PRE2]	1.25 ± 0.095
VTIIPLDKIYTRPISSQ [SMC2]	1.55 ± 0.084
VTKDTKKYSSKNKYGEI [SRP68]	2.66 ± 0.099
VTLKGAKALESLASCLR [POP1]	2.94 ± 0.069
VTPEDVMTISSLEQRTL [RPC82]	3.1 ± 0.076
VTQKDICILGILDLCQL [CSI1]	2.85 ± 0.072
VTVVDTPPVVVVGVVGY [RPL3]	1.41 ± 0.061
VVDFKNKENDNVPSTKF [SNF12]	3.23 ± 0.25
VVEPEHMADAKIMPKDI [SIR4]	3.35 ± 0.071
VVFRDPYKYRLREEIFI [RPL2A]	2.66 ± 0.098
VVGVVGYVETPRGLRSL [RPL3]	2.68 ± 0.049
VVIDAFRLIDTGALINN [RPN11]	1.78 ± 0.17
VVLGVEKRATSPLLESD [PUP2]	2.84 ± 0.13
VVTSSVAESFTDEADSS [SNF2]	2.98 ± 0.1
VVVAETSPEKKDGGDKP [YAR002W/NUP60]	3.23 ± 0.24
VWGSETVASSKVGYTLP [RPL4A]	3.15 ± 0.049
VYDFYGRHVATCSSDQH [YGL100W/SEH1]	2.32 ± 0.06
VYFGDENKVMLPRCSKE [RRI2]	3.37 ± 0.089
VYKFMSLAKSSALWSSR [ECM29]	1.97 ± 0.16
VYNLALKCAERQLTSME [NUT1]	2.2 ± 0.052
